Experimental data from the supplement of paper PMC10567573.

B1: CCNC (parent)
chain: QSSHYLQWILDKQDLLKERQKDLK

Variants of: B1
Experiment: protein stability index of a GFP-peptide fusion (GPS, HEK-293T) (PSI 1-6); higher = more stable
Settings: c terminus: a fixed tail appended
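Further: lentivirally expressed fusions sorted by FACS into six bins by GFP to DsRed ratio, PSI derived from sequencing read proportions per bin multiplied by bin number.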

Which protein stability index does the source give for QSSHYLQWILDKVDLLKERQKDLK [Q13V] here?
Its protein stability index is 2.76.

Which protein stability index does the source give for QSSHYLQWILDKHDLLKERQKDLK [Q13H] here?
The protein stability index was 2.5.

Which protein stability index does the source give for QSSHYLQWILDKLDLLKERQKDLK [Q13L] here?
The protein stability index was 1.85.

Which protein stability index does the source give for QSSHYLQWILDKGDLLKERQKDLK [Q13G] here?
Its protein stability index is 2.94.

Which protein stability index does the source give for QSSHYLQWILDKIDLLKERQKDLK [Q13I] here?
Its protein stability index is 2.59.

With QSSHYLQWILDKMDLLKERQKDLK [Q13M] as the variant, how does the protein stability index read?
Its protein stability index is 2.

For QSSHYLQWILDKDDLLKERQKDLK [Q13D], which protein stability index is on record?
Its protein stability index is 3.82.

For QSSHYLQWILDKSDLLKERQKDLK [Q13S], which protein stability index is on record?
Its protein stability index is 2.91.

With QSSHYLQWILDKTDLLKERQKDLK [Q13T] as the variant, how does the protein stability index read?
The protein stability index was 2.7.

Which protein stability index does the source give for QSSHYLQWILDKNDLLKERQKDLK [Q13N] here?
The protein stability index was 3.74.

With QSSHYLQWILDKWDLLKERQKDLK [Q13W] as the variant, how does the protein stability index read?
The protein stability index was 2.36.

Which protein stability index does the source give for QSSHYLQWILDKEDLLKERQKDLK [Q13E] here?
Its protein stability index is 2.71.

With QSSHYLQWILDKPDLLKERQKDLK [Q13P] as the variant, how does the protein stability index read?
The protein stability index was 3.36.

For QSSHYLQWILDKADLLKERQKDLK [Q13A], which protein stability index is on record?
Its protein stability index is 2.74.

Which protein stability index does the source give for QSSHYLQWILDKFDLLKERQKDLK [Q13F] here?
The protein stability index was 2.34.

Which protein stability index does the source give for QSSHYLQWILDKKDLLKERQKDLK [Q13K] here?
The protein stability index was 3.49.

For QSSHYLQWILDKRDLLKERQKDLK [Q13R], which protein stability index is on record?
The protein stability index was 2.6.

With QSSHYLQWILDKYDLLKERQKDLK [Q13Y] as the variant, how does the protein stability index read?
The protein stability index was 2.42.

With QSSHYLQWILDKCDLLKERQKDLK [Q13C] as the variant, how does the protein stability index read?
The protein stability index was 3.1.

Which protein stability index does the source give for QSSHYLQWILDKQDKLKERQKDLK [L15K] here?
The protein stability index was 3.66.

For QSSHYLQWILDKQDCLKERQKDLK [L15C], which protein stability index is on record?
Its protein stability index is 3.21.

With QSSHYLQWILDKQDILKERQKDLK [L15I] as the variant, how does the protein stability index read?
Its protein stability index is 3.11.

With QSSHYLQWILDKQDQLKERQKDLK [L15Q] as the variant, how does the protein stability index read?
Its protein stability index is 3.94.

For QSSHYLQWILDKQDTLKERQKDLK [L15T], which protein stability index is on record?
The protein stability index was 3.72.

With QSSHYLQWILDKQDGLKERQKDLK [L15G] as the variant, how does the protein stability index read?
The protein stability index was 3.44.

With QSSHYLQWILDKQDHLKERQKDLK [L15H] as the variant, how does the protein stability index read?
The protein stability index was 3.72.

For QSSHYLQWILDKQDALKERQKDLK [L15A], which protein stability index is on record?
The protein stability index was 4.19.

Which protein stability index does the source give for QSSHYLQWILDKQDYLKERQKDLK [L15Y] here?
The protein stability index was 2.8.

Which protein stability index does the source give for QSSHYLQWILDKQDRLKERQKDLK [L15R] here?
Its protein stability index is 2.78.

For QSSHYLQWILDKQDPLKERQKDLK [L15P], which protein stability index is on record?
The protein stability index was 3.93.

Which protein stability index does the source give for QSSHYLQWILDKQDNLKERQKDLK [L15N] here?
Its protein stability index is 3.33.

For QSSHYLQWILDKQDWLKERQKDLK [L15W], which protein stability index is on record?
The protein stability index was 3.37.

With QSSHYLQWILDKQDDLKERQKDLK [L15D] as the variant, how does the protein stability index read?
The protein stability index was 3.47.

With QSSHYLQWILDKQDFLKERQKDLK [L15F] as the variant, how does the protein stability index read?
Its protein stability index is 2.54.

With QSSHYLQWILDKQDSLKERQKDLK [L15S] as the variant, how does the protein stability index read?
The protein stability index was 3.44.

For QSSHYLQWILDKQDVLKERQKDLK [L15V], which protein stability index is on record?
The protein stability index was 3.11.

Which protein stability index does the source give for QSSHYLQWILDKQDELKERQKDLK [L15E] here?
Its protein stability index is 4.08.

With QSSHYLQWILDCQDLLKERQKDLK [K12C] as the variant, how does the protein stability index read?
The protein stability index was 2.46.

Which protein stability index does the source give for QSSHYLQWILDLQDLLKERQKDLK [K12L] here?
Its protein stability index is 1.72.

With QSSHYLQWILDQQDLLKERQKDLK [K12Q] as the variant, how does the protein stability index read?
Its protein stability index is 3.25.

With QSSHYLQWILDTQDLLKERQKDLK [K12T] as the variant, how does the protein stability index read?
The protein stability index was 2.01.

With QSSHYLQWILDEQDLLKERQKDLK [K12E] as the variant, how does the protein stability index read?
The protein stability index was 3.66.

For QSSHYLQWILDNQDLLKERQKDLK [K12N], which protein stability index is on record?
Its protein stability index is 2.79.

With QSSHYLQWILDPQDLLKERQKDLK [K12P] as the variant, how does the protein stability index read?
Its protein stability index is 3.29.

With QSSHYLQWILDGQDLLKERQKDLK [K12G] as the variant, how does the protein stability index read?
Its protein stability index is 2.41.

With QSSHYLQWILDIQDLLKERQKDLK [K12I] as the variant, how does the protein stability index read?
The protein stability index was 1.71.

With QSSHYLQWILDDQDLLKERQKDLK [K12D] as the variant, how does the protein stability index read?
The protein stability index was 4.21.

Which protein stability index does the source give for QSSHYLQWILDYQDLLKERQKDLK [K12Y] here?
Its protein stability index is 2.75.

For QSSHYLQWILDSQDLLKERQKDLK [K12S], which protein stability index is on record?
The protein stability index was 1.98.

For QSSHYLQWILDFQDLLKERQKDLK [K12F], which protein stability index is on record?
Its protein stability index is 2.25.

With QSSHYLQWILDWQDLLKERQKDLK [K12W] as the variant, how does the protein stability index read?
The protein stability index was 1.52.

With QSSHYLQWILDHQDLLKERQKDLK [K12H] as the variant, how does the protein stability index read?
Its protein stability index is 2.83.

For QSSHYLQWILDMQDLLKERQKDLK [K12M], which protein stability index is on record?
Its protein stability index is 1.92.

For QSSHYLQWILDAQDLLKERQKDLK [K12A], which protein stability index is on record?
Its protein stability index is 2.73.

With QSSHYLQWILDVQDLLKERQKDLK [K12V] as the variant, how does the protein stability index read?
The protein stability index was 2.34.

Which protein stability index does the source give for QSSHYLQWILDKQDLLKCRQKDLK [E18C] here?
Its protein stability index is 2.28.

For QSSHYLQWILDKQDLLKPRQKDLK [E18P], which protein stability index is on record?
Its protein stability index is 2.56.

Which protein stability index does the source give for QSSHYLQWILDKQDLLKMRQKDLK [E18M] here?
Its protein stability index is 2.02.

For QSSHYLQWILDKQDLLKDRQKDLK [E18D], which protein stability index is on record?
Its protein stability index is 3.08.

With QSSHYLQWILDKQDLLKNRQKDLK [E18N] as the variant, how does the protein stability index read?
Its protein stability index is 2.53.

Which protein stability index does the source give for QSSHYLQWILDKQDLLKVRQKDLK [E18V] here?
Its protein stability index is 2.82.

Which protein stability index does the source give for QSSHYLQWILDKQDLLKSRQKDLK [E18S] here?
The protein stability index was 2.54.

For QSSHYLQWILDKQDLLKYRQKDLK [E18Y], which protein stability index is on record?
The protein stability index was 2.2.

With QSSHYLQWILDKQDLLKHRQKDLK [E18H] as the variant, how does the protein stability index read?
The protein stability index was 2.54.

With QSSHYLQWILDKQDLLKLRQKDLK [E18L] as the variant, how does the protein stability index read?
Its protein stability index is 2.33.

With QSSHYLQWILDKQDLLKQRQKDLK [E18Q] as the variant, how does the protein stability index read?
Its protein stability index is 2.29.

Which protein stability index does the source give for QSSHYLQWILDKQDLLKWRQKDLK [E18W] here?
Its protein stability index is 1.8.

For QSSHYLQWILDKQDLLKFRQKDLK [E18F], which protein stability index is on record?
Its protein stability index is 2.15.

Which protein stability index does the source give for QSSHYLQWILDKQDLLKTRQKDLK [E18T] here?
The protein stability index was 2.7.

With QSSHYLQWILDKQDLLKRRQKDLK [E18R] as the variant, how does the protein stability index read?
The protein stability index was 2.63.

Which protein stability index does the source give for QSSHYLQWILDKQDLLKKRQKDLK [E18K] here?
Its protein stability index is 2.89.

Which protein stability index does the source give for QSSHYLQWILDKQDLLKARQKDLK [E18A] here?
The protein stability index was 3.67.

With QSSHYLQWILDKQDLLKGRQKDLK [E18G] as the variant, how does the protein stability index read?
The protein stability index was 2.53.

Which protein stability index does the source give for QSSHYLQWILDKQDLLKIRQKDLK [E18I] here?
The protein stability index was 2.84.

Which protein stability index does the source give for QSSHYLQWILNKQDLLKERQKDLK [D11N] here?
Its protein stability index is 2.83.

Which protein stability index does the source give for QSSHYLQWILLKQDLLKERQKDLK [D11L] here?
Its protein stability index is 2.72.

For QSSHYLQWILCKQDLLKERQKDLK [D11C], which protein stability index is on record?
Its protein stability index is 2.96.

Which protein stability index does the source give for QSSHYLQWILYKQDLLKERQKDLK [D11Y] here?
Its protein stability index is 3.17.

Which protein stability index does the source give for QSSHYLQWILWKQDLLKERQKDLK [D11W] here?
The protein stability index was 2.38.

For QSSHYLQWILIKQDLLKERQKDLK [D11I], which protein stability index is on record?
The protein stability index was 2.26.

Which protein stability index does the source give for QSSHYLQWILGKQDLLKERQKDLK [D11G] here?
The protein stability index was 2.75.

Which protein stability index does the source give for QSSHYLQWILFKQDLLKERQKDLK [D11F] here?
Its protein stability index is 2.

For QSSHYLQWILRKQDLLKERQKDLK [D11R], which protein stability index is on record?
Its protein stability index is 2.1.

With QSSHYLQWILKKQDLLKERQKDLK [D11K] as the variant, how does the protein stability index read?
Its protein stability index is 3.09.

For QSSHYLQWILTKQDLLKERQKDLK [D11T], which protein stability index is on record?
The protein stability index was 2.58.

With QSSHYLQWILSKQDLLKERQKDLK [D11S] as the variant, how does the protein stability index read?
The protein stability index was 3.

For QSSHYLQWILPKQDLLKERQKDLK [D11P], which protein stability index is on record?
Its protein stability index is 3.13.

Which protein stability index does the source give for QSSHYLQWILQKQDLLKERQKDLK [D11Q] here?
The protein stability index was 3.39.

Which protein stability index does the source give for QSSHYLQWILAKQDLLKERQKDLK [D11A] here?
The protein stability index was 3.01.

With QSSHYLQWILVKQDLLKERQKDLK [D11V] as the variant, how does the protein stability index read?
The protein stability index was 2.86.

With QSSHYLQWILHKQDLLKERQKDLK [D11H] as the variant, how does the protein stability index read?
Its protein stability index is 2.86.

For QSSHYLQWILMKQDLLKERQKDLK [D11M], which protein stability index is on record?
Its protein stability index is 2.36.

With QSSHYLQWILEKQDLLKERQKDLK [D11E] as the variant, how does the protein stability index read?
The protein stability index was 3.4.

For QSSHYLQWVLDKQDLLKERQKDLK [I9V], which protein stability index is on record?
Its protein stability index is 3.09.
